Results reported in PMC3195444 (Biochemical Journal, 2011).
Several values for one entry are separate records, joined by “and”; a condition that tells them apart may be missing. Equal entries are not always repeated.

T1: sly1^E138K, Gal4 DNA-binding domain fusion (Arabidopsis thaliana, UniProt Q9STX3 1-151, E138K)
T1 sequence: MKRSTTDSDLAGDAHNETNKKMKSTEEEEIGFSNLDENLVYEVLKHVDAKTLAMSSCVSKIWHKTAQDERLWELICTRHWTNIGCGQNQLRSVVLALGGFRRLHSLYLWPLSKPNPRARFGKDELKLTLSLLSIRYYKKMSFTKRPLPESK

T2: MBP–GID1A (GIBBERELLIC ACID-… DWARF-1A, MBP fusion) (Arabidopsis thaliana, UniProt Q9MAA7 1-345)
T2 sequence: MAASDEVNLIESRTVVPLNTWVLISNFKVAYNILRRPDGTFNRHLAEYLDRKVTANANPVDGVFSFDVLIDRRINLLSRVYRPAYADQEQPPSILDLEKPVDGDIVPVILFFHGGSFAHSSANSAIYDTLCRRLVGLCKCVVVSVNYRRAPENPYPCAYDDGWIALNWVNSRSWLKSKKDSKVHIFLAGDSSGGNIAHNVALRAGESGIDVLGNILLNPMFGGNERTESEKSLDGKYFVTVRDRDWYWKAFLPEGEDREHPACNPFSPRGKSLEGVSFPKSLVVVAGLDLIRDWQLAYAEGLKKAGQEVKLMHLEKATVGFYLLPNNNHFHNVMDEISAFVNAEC


Key:
[1] = biological target: T1, sly1^E138K, Gal4 DNA-binding domain …; assay: yeast three-hybrid
[2] = biological target: T2, MBP–GID1A (GIBBERELLIC ACID-… DWARF-1A, …); assay: SPR

| Binder | fold recruitment against the ΔDELLA mutant in the presence of GID1A/GA3 [1] [fold] | Ka [2] |
| --- | --- | --- |
| RGL1 (REPRESSOR OF GA1-3-LIKE 1), Gal4 activation domain fusion (natural protein) MKREHNHRESSAGEGGSSSMTTVIKEEAAGVDELLVVLGYKVRSSDMADVAHKLEQLEMVLGDGISNLSDETVHYNPSDLSGWVESMLSDLDPTRIQEKPDSEYDLRAIPGSAVYPRDEHVTRRSKRTRIESELSSTRSVVVLDSQETGVRLVHALLACAEAVQQNNLKLADALVKHVGLLASSQAGAMRKVATYFAEGLARRIYRIYPRDDVALSSFSDTLQIHFYESCPYLKFAHFTANQAILEVFATAEKVHVIDLGLNHGLQWPALIQALALRPNGPPDFRLTGIGYSLTDIQEVGWKLGQLASTIGVNFEFKSIALNNLSDLKPEMLDIRPGLESVAVNSVFELHRLLAHPGSIDKFLSTIKSIRPDIMTVVEQEANHNGTVFLDRFTESLHYYSSLFDSLEGPPSQDRVMSELFLGRQILNLVACEGEDRVERHETLNQWRNRFGLGGFKPVSIGSNAYKQASMLLALYAGADGYNVEENEGCLLLGWQTRPLIATSAWRINRVE | 4 | – |
| MBP–RGL1^N (RGL1^1–137, N-terminal or DELLA domain of RGL1, MBP fusion) (domain or fragment) MKREHNHRESSAGEGGSSSMTTVIKEEAAGVDELLVVLGYKVRSSDMADVAHKLEQLEMVLGDGISNLSDETVHYNPSDLSGWVESMLSDLDPTRIQEKPDSEYDLRAIPGSAVYPRDEHVTRRSKRTRIESELSST | – | 5.73e+08 M⁻¹ and 3.58e+08 M⁻¹ and 6.49e+08 M⁻¹ |
